Assay results from publication PMC10716049.

What was measured:
MED1-IDR = experiment: confocal fluorescence microscopy, AR AD partitioning into preassembled droplets; settings: 15 µM MED1-IDR, 20 mM NaCl, 10% ficoll, 1 µM AR AD; parent: est. 97; read off a plot
RNAPII-CTD = experiment: as above; settings: 5 µM RNAPII-CTD, 50 mM NaCl, 10% ficoll, 1 µM AR AD; parent: est. 70; read off a plot

AR AD WT* 22YtoS was tested, and the response (MED1-IDR) was 80 arb.u and the response (RNAPII-CTD) was 25 arb.u.
